Experimental data taken from US20220251154A1 (HANGZHOU SUMGEN BIOTECH, published 2022).

Experiments:
PD-L1-Fc = biological target: T1, PD-L1-Fc (UniProt Q9NZQ7 19-239, limits assumed); test: competition ELISA: PD-L1-Fc coated, Biotin-Fc-PD1 (1 ug/ml) added with the binder; blocks PD-1/PD-L1
T1 construct: not shown: Fc part

[1] = biological target: T2, biotin-labeled CD47 (Biotin-Fc-CD47) (UniProt Q08722 19-139, limits assumed, biotin-labeled (site not stated)); test: competition ELISA: SIRPα-His coated, Biotin-Fc-CD47 (2 ug/ml) pre-incubated with the binder; blocks CD47/SIRPα
T2 construct: not shown: Fc part
T2 sequence (Q08722 19-139 limits assumed): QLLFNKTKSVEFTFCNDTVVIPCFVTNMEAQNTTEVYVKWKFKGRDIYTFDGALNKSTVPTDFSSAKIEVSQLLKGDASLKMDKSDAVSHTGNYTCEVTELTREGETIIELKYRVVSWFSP

T1 sequence (Q9NZQ7 19-239 limits assumed): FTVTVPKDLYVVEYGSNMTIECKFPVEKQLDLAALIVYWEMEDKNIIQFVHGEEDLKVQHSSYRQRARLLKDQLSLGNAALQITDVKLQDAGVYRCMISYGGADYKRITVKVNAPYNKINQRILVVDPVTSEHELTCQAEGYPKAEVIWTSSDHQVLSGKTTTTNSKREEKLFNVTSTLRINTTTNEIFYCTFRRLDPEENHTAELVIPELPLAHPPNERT

- IC50 (PD-L1-Fc): 9.12 nM
- IC50 [1]: 0.77 nM
B1: fusion protein SG12474 (bispecific antibody, human IgG1, kappa, N297A)
heavy: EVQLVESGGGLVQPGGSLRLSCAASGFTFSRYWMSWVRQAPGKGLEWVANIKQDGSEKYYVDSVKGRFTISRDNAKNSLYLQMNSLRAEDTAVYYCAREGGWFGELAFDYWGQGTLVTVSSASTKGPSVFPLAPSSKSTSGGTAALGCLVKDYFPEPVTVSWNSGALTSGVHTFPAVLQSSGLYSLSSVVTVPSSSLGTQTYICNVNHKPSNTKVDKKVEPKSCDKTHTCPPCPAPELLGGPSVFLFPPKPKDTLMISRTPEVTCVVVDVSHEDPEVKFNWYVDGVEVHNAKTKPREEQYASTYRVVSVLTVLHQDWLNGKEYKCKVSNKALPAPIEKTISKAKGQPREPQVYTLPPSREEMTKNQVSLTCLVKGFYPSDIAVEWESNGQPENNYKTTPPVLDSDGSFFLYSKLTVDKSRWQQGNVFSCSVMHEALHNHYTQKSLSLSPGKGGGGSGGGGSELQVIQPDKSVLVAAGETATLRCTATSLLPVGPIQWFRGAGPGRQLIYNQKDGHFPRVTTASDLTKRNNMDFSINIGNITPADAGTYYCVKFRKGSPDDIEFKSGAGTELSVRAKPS
light: EIVLTQSPGTLSLSPGERATLSCRASQRVSSSYLAWYQQKPGQAPRLLIYDASSRATGIPDRFSGSGSGTDFTLTISRLEPEDFAVYYCQQYGSLPWTFGQGTKVEIKRTVAAPSVFIFPPSDEQLKSGTASVVCLLNNFYPREAKVQWKVDNALQSGNSQESVTEQDSKDSTYSLSSTLTLSKADYEKHKVYACEVTHQGLSSPVTKSFNRGEC
notes: First polypeptide chain is the SG1202 light chain
